What all share (assay): cell-based or functional assay
Substrate in test [1]: F protein of RSV strain 18537 (human respiratory syncytial virus strain 18537 (subtype B)) (UniProt P13843)
Substrate in test [2]: F protein of RSV strain Long (human respiratory syncytial virus strain Long (subtype A)) (UniProt P12568)
Substrate in test [3]: F protein of RSV strain B1 (human respiratory syncytial virus strain B1 (subtype B)) (UniProt O36634)

This is an account of results in patent US20080226630A1.

F protein of RSV strain 18537 (human respiratory syncytial virus strain 18537 (subtype B)), sequence (P13843 26-574): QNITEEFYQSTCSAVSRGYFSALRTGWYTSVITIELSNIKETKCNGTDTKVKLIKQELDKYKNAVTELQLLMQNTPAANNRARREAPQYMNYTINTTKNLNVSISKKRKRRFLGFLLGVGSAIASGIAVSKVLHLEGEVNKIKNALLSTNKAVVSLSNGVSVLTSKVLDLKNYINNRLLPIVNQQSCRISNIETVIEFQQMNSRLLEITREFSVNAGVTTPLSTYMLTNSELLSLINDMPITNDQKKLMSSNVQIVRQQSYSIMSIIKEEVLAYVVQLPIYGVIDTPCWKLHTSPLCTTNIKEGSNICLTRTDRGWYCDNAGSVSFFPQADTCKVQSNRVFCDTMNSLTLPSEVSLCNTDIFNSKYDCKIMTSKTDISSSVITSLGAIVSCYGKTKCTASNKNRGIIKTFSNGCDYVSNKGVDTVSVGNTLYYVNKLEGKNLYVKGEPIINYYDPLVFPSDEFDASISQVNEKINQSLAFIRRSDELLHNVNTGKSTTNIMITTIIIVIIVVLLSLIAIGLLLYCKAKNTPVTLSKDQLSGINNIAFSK
F protein of RSV strain B1 (human respiratory syncytial virus strain B1 (subtype B)), sequence (O36634 26-574): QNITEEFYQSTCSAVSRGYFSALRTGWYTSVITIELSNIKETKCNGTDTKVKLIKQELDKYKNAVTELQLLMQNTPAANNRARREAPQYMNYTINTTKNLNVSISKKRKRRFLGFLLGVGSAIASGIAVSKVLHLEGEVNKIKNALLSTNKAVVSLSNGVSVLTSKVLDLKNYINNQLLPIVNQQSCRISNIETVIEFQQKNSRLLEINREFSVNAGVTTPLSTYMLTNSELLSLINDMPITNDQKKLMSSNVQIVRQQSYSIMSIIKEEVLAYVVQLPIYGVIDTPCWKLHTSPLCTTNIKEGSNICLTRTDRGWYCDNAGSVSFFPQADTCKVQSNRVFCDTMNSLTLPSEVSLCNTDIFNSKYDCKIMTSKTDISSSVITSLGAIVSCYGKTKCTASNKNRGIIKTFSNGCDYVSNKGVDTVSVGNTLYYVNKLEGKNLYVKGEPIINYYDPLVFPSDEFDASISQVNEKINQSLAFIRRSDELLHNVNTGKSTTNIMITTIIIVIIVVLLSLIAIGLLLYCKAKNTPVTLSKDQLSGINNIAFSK
F protein of RSV strain Long (human respiratory syncytial virus strain Long (subtype A)), sequence (P12568 26-574): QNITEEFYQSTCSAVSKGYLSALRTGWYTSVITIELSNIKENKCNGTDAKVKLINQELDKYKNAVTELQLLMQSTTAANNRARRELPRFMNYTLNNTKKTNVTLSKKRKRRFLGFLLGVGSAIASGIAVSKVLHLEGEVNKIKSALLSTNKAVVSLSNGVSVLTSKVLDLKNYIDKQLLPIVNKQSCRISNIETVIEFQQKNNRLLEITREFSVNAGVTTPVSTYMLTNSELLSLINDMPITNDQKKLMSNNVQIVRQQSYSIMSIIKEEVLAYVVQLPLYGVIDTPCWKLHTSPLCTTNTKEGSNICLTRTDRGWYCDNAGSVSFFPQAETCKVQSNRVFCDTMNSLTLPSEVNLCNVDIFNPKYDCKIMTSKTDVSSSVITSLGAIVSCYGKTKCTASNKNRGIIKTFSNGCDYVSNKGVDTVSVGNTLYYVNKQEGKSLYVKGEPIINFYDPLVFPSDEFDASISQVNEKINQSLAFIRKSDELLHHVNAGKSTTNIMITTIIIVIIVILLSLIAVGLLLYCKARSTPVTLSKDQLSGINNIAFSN

B1: antibody 818 (clone 818) (antibody, human IgG1, kappa, V domains shown)
VH: QVTLRESGPAVVKPTETLTLTCAFSGFSLNAGRVGVSWIRQPPGQAPEWLARIDWDDDKAFRTSLKTRLSISKDSSKNQVVLTLSNMDPADTATYYCARTQVFASGGYYLYYLDHWGQGTLVTVSS
VL: DIQMTQSPSSLSASVGDRVTITCRASQTIASYVNWYQQKPGRAPSLLIYAASNLQSGVPPRFSGSGSGTDFTLTISGLQPDDFATYYCQQSYSYRALTFGGGTKVEIKR
With B1, in test [1], the EC50, PRNT with complement, RSV 18537 was 0.21 µg/mL. Moreover, in test [2], the EC50, PRNT with complement, RSV Long worked out at 1.86 µg/mL and the EC50, PRNT with complement, RSV Long (new determination) amounted to 0.15 µg/mL.

B2: antibody 880 (clone 880) (antibody, human IgG1, kappa, V domains shown)
VH: QITLKESGPTLVRPTQTLTLTCTFSGFSLSTSKLGVGWIRQPPGKALEWLALVDWDDDRRYRPSLKSRLTVTKDTSKNQVVLTMTNMDPVDTATYYCAHSAYYTSSGYYLQYFHHWGPGTLVTVSS
VL: DIQMTQSPSSLAASVGDRVTITCRASQTIASYVNWYQQKPGKAPNLLIYAASSLQSGVPSRFSGSGSGTDFTLTISSLQPEDFASYFCQQSYSFPYTFGQGTKLDIKR
As to B2, the EC50, PRNT with complement, RSV 18537 in test [1] amounted to 0.95 µg/mL. The EC50, PRNT with complement, RSV Long in test [2] was determined as 0.38 µg/mL. Further, in test [3], the EC50, PRNT with complement, RSV B1 stood at 0.4 µg/mL.

B3: antibody 894 (clone 894) (antibody, human IgG1, kappa, V domains shown)
VH: QVQLVESGGGVVQPGKSLRLSCAASGFRFSDYGMHWVRQAPSKGLEWVAVIWHDGSNIRYADSVRGRFSISRDNSKNTLYLQMNSMRADDTAFYYCARVPFQIWSGLYFDHWGQGTLVTVSS
VL: EIVMTQSPATLSVSPGERATLSCRASQSVGNNLAWYQQRPGQAPRLLIYGASTRATGIPARFSGSGSGTEFTLTISSLQSEDFAVYYCQQYDKWPETFGQGTKVDIKR
Consider B3, for which the EC50, PRNT with complement, RSV 18537 in test [1] came out at 0.07 µg/mL. Moreover, the EC50, PRNT with complement, RSV Long in test [2] came to 0.08 µg/mL.

B4: antibody 831 (clone 831) (antibody, human IgG1, kappa, V domains shown)
VH: QVQLVQSGAEVKKPGASVKVSCKASANIFTYAMHWVRQAPGQRLEWMGWINVGNGQTKYSQRFQGRVTITRDTSATTAYMELSTLRSEDTAVYYCARRASQYGEVYGNYFDYWGQGTLVTVSS
VL: DIQMTQSPSTLSASVGDRLTITCRASQNIYNWLAWYQQKPGKAPKLLIYDASTLESGVPSRFSGSGSGTEFTLTISSLQPDDFATYYCQQYNSLSPTFGQGTKVEIKR
For the molecule B4, the EC50, PRNT with complement, RSV 18537 in test [1] stood at 0.72 µg/mL. Also, the EC50, PRNT with complement, RSV Long in test [2] was 0.08 µg/mL. Also, the EC50, PRNT with complement, RSV B1 in test [3] is 1.66 µg/mL.

B5: antibody 827 (clone 827) (antibody, human IgG1, kappa, V domains shown)
VH: QVQLVQSGAEVKKPGASVKVSCRVSGHTFTALSKHWMRQGPGGGLEWMGFFDPEDGDTGYAQKFQGRVTMTEDTATGTAYMELSSLTSDDTAVYYCATVAAAGNFDNWGQGTLVTVSS
VL: DIQMTQSPSSLAASVGDRVTITCRASQFISSYLHWYQQRPGKAPKLLMYAASTLQSGVPSRFSGSGSGTDFTLTISSLQPEDFATYYCQQSYTNPYTFGQGTKLEIKR
Turning to B5, the EC50, PRNT with complement, RSV 18537 in test [1] turned out to be 0.1 µg/mL. Further, in test [2], the EC50, PRNT with complement, RSV Long was 0.16 µg/mL.

B6: antibody 800 (clone 800) (antibody, human IgG1, kappa, V domains shown)
VH: QVQLVESGGAVVQPGRSLRLSCEVSGFSFSDYGMNWVRQGPGKGLEWVAVIWHDGSNKNYLDSVKGRFTVSRDNSKNTLFLQMNSLRAEDTAVYYCARTPYEFWSGYYFDFWGQGTLVTVSS
VL: AIQLTQSPSSLSASVGDRVTLTCRASQGITDSLAWYQQKPGKAPKVLLYAASRLESGVPSRFSGRGSGTDFTLTISSLQPEDFATYYCQQYSKSPATFGPGTKVEIRR
For B6, in test [2], the EC50, PRNT with complement, RSV Long was found to be 0.15 µg/mL. For the same molecule, the EC50, PRNT with complement, RSV B1 in test [3] was determined as 0.16 µg/mL.
